Source: US11426447B2, “Neuregulin for the treatment of tumors of the nervous system” (LEIBNIZ-INSTITUT FUR …, priority 2016, dated 2022)

Assays:
Schwann cells = assay: Neuropathological assessment (HE, immunolabelling) of sciatic nerve cross sections 3 months after crush injury; format: in vivo, P0-Cre;Nefh-Cre;Nf2fl/+ mice; settings: KO mice
Description: For histological workup, paraformaldehyd fixed nerve samples were embedded in paraffin, cut at the site of the largest diameter and mounted as a tissue micro array. 4 μm thick cross sections were used for H&E staining and immunohistochemical labelling of S100 (1:8000; Dako), P0 (1:300; Bioss Antibodies), phospho-c-Jun (Ser73; 1:500; Cell Signalling; 8752), ErbB2 (1:500; Cell Signaling) and Arginase-1 (1:200; Santa Cruz; H-52) in an automated Ventana stainer (Ventana Medical Systems, USA) using standard antigen retrieval protocols (CC1st, no pretreatment for S100-protein). Onion-bulbs and schwannoma-like structures were assessed in H&E stained slides.
Immunohistochemistry was performed as described in (Schulz et al., 2010). Briefly, paraffin-embedded, longitudinal sections of sciatic nerves were rehydrated, boiled in 10 mM sodium citrate buffer (pH9) for 30 min in a microwave and subsequently treated with 0,5% Triton X-100 for 10 min. Sections incubated in 0.2% gelatine and 2% goat serum diluted in PBS at least 2 h. Sections submersed in the primary antibody solution overnight at 4° C. The following primary antibodies were used: Myelin protein zero (P0; 1:200; Abcam; ab39375), neurofilament (1:200; BioLegend; SMI312), myelin basic protein (MBP; 1:500; Millipore; MAB384)), Ki-67 (1:200; eBioscience; Clone: SolA15), lba-1 (1:200; Wako), and p75 (1:200; Merck Millipore; AB 1554). After vigorous washings, sections incubated with secondary antibody solution (Alexa488-, Alexa546- or Alexa647-conjugated anti-mouse, -rat, -chicken and -rabbit antibodies, 1:500 in PBS, Invitrogen) at room temperature for 2 h. Finally specimens washed in PBS, counterstained using DAPI (1 μg/ml PBS, 10 min) dehydrated and embedded. DAPI-stained cell nuclei or lba-1-positive cells were counted using ImageJ plugin ‘Particle Analysis’ from images acquired with 10× magnification after standardized background reduction and threshold setting.
(§1) Sciatic nerve crush injury was performed on WT and Nf2flox;P0-Cre;Nefh-Cre mutant animals as described in Example 1. The Nf2flox;P0-Cre;Nefh-Cre mutant animals were intraperitoneally injected every day with 10 μg of rhNRG1 per kg body weight (KO rhNRG1). For a control a PBS solution was systemically administered to WT animals and Nf2flox;P0-Cre;Nefh-Cre mutant animals (WT vehicle and KO vehicle). Sciatic nerve lysates were taken from animals after 3 month of treatment upon which immunochemistry was performed as described in Example 1.

[1] = tested on: Schwann cell differentiation markers in crushed sciatic nerves; assay: Immunoblot of sciatic nerve lysates after 3 months of treatment; format: in vivo, Nf2flox;P0-Cre;Nefh-Cre mice
Description: Immunoblotting was performed as described in (Morrison et al., 2001). The following primary antibodies were used: phospho-c-Jun (Ser73; 1:1000; Cell Signalling; 8752), anti-Nrg1 (1:250; Santa Cruz; clone C-20), anti-Erk (1:500; Cell Signalling), anti-phospho-Erk (T202/Y204; 1:500; Cell Signalling), anti-ErbB2 (1:500; Cell Signalling), anti-GAPDH (1:1000; Santa Cruz; 6C5), anti-merlin (1:500; Santa Cruz; A19). Western blot results were quantified using Gel analysis software by ImageJ. Density values were normalized to actin and appropriate controls of transfection or wild-type tissue, respectively. In case of phospho-specific detection of proteins, their acquired densities were referred to signals derived from related pan-antibodies (e.g. phospho-Erk to Erk signals).
as §1

[2] = systemic rhNRG1, 3 months after crush injury
[3] = systemic rhNRG1 vs saline-treated same genotype

B1: rhNRG1: EGF domain containing 7 kDa protein of recombinant human Neuregulin 1, purchased from Reprokine (#RKQ02297) (protein, listed as Homo sapiens)
chain: SHLVKCAEKEKTFCVNGGECFMVKDLSNPSRYLCKCPNEFTGDRCQNYVMASFYKHLGIEF
Schwann cells; rhNRG1 injections
  number of immature Schwann cells (p75 staining): relevantly decreased
Schwann cells; rhNRG1 vs KO control injections
  immunoreactivity of schwannoma marker CPI-17: relevantly lower
Schwann cells; [2]
  S100 and MPZ immunoreactivity: restricted to Schwann cells with myelinating phenotype
  nerve regeneration (histology): almost regular regeneration
Schwann cells; [3]
  expression of Neuregulin1 (immunolabelling): greatly reduced
  expression of receptor tyrosine kinase ErbB2 (immunolabelling): greatly reduced
[1]; KO rhNRG1
  21.5-kDa MBP isoform expression (immunoblot): strong up-regulation
[1]; KO rhNRG1, 3 months of treatment, vs wildtype
  myelin protein zero (MPZ) expression (immunoblot): reduced expression
[1]; KO rhNRG1 vs wildtype littermates
  17 kDa myelin basic protein (MBP) isoform expression (immunoblot): remarkable reduced expression
[1]; knockout animals, systemic rhNRG1 injections
  c-Jun levels (marker for undifferentiated Schwann cells): reduced
[1]; rhNRG1-treated knockout mice, high in vehicle-treated knockout
  ErbB2 expression (immunoblot): normal expression
[1]; systemic rhNRG1 treatment
  macrophage number in nerve tissue (Iba-1 immunoblot): not influenced
